Reference: PMC6152271

Molecular target: recombinant human soluble catechol-O-methyltransferase (human) (UniProt P21964)

IC50 of inhibition of COMT activity (methyl transfer from 14C-SAM to DBA): 1.6 µM
Substance: bovine lactoferrin (natural protein)
